This note sets out measurements from paper PMC8395149, “Der f 38 Is a Novel TLR4-Binding Allergen Related to Allergy Pathogenesis from Dermatophagoides farinae” (International Journal of Molecular Sciences, 2021).

This assay addresses T1, recombinant TLR4 (UniProt O00206 24-631).
T1 construct: Toll-like receptor 4 (TLR4), recombinant protein from R&D Systems; also called Toll-like receptor 4; source: bought: R&D Systems
Put plainly: BLI; Octet QKe; recombinant TLR4 (1 ug/mL) immobilised in PBS by amine coupling on an AR2G sensor, blocked with 1 M ethanolamine pH 8.5; sensors dipped in 2-fold dilutions of Der f 38 (6400-400 nM and blank); association 300 s, dissociation 1200 s in assay buffer.

Where two headings read alike, the source gives them in different places.

T1 sequence (O00206 24-631): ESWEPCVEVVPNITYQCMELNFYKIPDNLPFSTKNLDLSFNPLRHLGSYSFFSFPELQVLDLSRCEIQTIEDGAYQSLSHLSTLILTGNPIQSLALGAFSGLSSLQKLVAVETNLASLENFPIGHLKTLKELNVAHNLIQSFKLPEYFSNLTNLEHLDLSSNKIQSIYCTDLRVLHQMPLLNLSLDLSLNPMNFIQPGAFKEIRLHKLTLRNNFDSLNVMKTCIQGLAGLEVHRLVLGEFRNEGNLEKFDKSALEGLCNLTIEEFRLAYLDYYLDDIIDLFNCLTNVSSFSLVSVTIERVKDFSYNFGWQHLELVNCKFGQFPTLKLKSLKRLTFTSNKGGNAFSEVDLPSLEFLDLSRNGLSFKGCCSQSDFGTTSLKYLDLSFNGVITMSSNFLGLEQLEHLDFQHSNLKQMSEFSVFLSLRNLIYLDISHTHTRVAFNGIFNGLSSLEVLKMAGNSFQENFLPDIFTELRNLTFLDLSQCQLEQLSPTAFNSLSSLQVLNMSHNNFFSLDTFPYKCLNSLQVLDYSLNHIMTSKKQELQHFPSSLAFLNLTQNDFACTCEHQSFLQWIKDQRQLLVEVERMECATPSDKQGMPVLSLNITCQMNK

Take recombinant Der f 38 (natural protein): the Kd was 74 nM.

B1: recombinant MD2 (natural protein, UniProt Q9Y6Y9 19-160, looked up)
chain: QKQYWVCNSSDASISYTYCDKMQYPISINVNPCIELKRSKGLLHIFYIPRRDLKQLYFNLYITVNTMNLPKRKEVICRGSDDDYSFCRALKGETVNTTISFSFKGIKFSKGKYKCVVEAISGSPEEMLFCLEFVILHQPNSN
notes: MD2 (MD-2, lymphocyte antigen 96), recombinant protein from R&D Systems; source: bought: R&D Systems
In the case of B1, the Kd (both partners purified) was found to be 1.56 nM.
